Substitutions are numbered along the chain they refer to.
What was measured:
[1] = molecular target: T1, bovine pancreatic RNase A (bovine, UniProt P61823 27-150); test: ITC, 25 C; no nickel
T1 construct: mature; Bought purified protein; The residue numbers K61 and T70, and the missing residues 16-22, fit the mature numbering; It was coated on plates in the ELISAs and biotinylated for the phage selections
T1 sequence (looked up): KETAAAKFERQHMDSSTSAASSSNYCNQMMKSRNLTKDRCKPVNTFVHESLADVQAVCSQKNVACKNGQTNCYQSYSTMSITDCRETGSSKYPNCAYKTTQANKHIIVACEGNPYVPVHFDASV
Method: (§1) The binding parameters (K, ΔH°, ΔS°, and n) were determined using the single site binding model using the ITC add-in in Origin version 7 (MicroCal LLC). All titrations indicated a 1:1 interaction with observed stoichiometries equal to 1.0 (within 5%).
(§2) ITC experiments were performed using a MicroCal VP-ITC (MicroCal, LLC, Northampton, Mass.). All experiments were performed at 25° C. Proteins were dialyzed against the desired experimental buffer, which included PBS (20 mM NaPhosphate, 150 mM NaCl pH 7.4), TBS (20 mM Tris-HCl, 150 mM NaCl pH 7.4) and TBS-E (20 mM Tris, 150 mM NaCl, 1 mM EDTA, pH 7.4). For direct titration of NiCl₂ into the VHHmetal variant, concentrations were 2 mM and 200 μM for NiCl₂ and VHH, respectively. Based on the observed binding constant, this corresponds to a “cvalue” of 6.7, which is within the commonly acceptable range for the accurate determination of binding thermodynamics (Tellinghuisen, 2008; Wiseman et al. 1989). For competitive titrations, nickel was included in TBS without EDTA at concentrations ranging from 0-10 mM. Competitive VHH/RNase A titration experiments with a “c” value greater than 10 included protein concentrations ranging from 30 μM to 205 μM. Conditions included a 10-fold higher concentration of titrant (VHH). […] These experiments included using a 100-fold higher concentration of titrant (RNase A) relative to VHH. RNase A concentrations were between 150 μM and 800 μM. Extinction coefficients were determined using values determined by the methods described by Pace, et. al. (1995). […] For nickel/VHH titrations, the titrant nickel was dissolved in the appropriate dialysis buffer at a 10× concentration of the VHH. Experiments typically included 27, 10 μL injections with a 240 second delay between each injection. Dilution titrations indicated the absence of significant heats of dilution, consequently, no background dilution heat subtractions were necessary. The binding parameters (K, ΔH°, ΔS°, and n) were determined using the single site binding model using the ITC add-in in Origin version 7 (MicroCal LLC).

[2] = molecular target: T1, bovine pancreatic RNase A; test: ITC, 25 C; RNase A binding with 1 mM nickel (competitive)
Method: as §1, §2

[3] = molecular target: T1, bovine pancreatic RNase A; test: competitive phage ELISA without metals: VHH phage, serially diluted soluble RNase A (the varied competitor), RNase A-coated wells [panel A]
Method: (§3) Competitive Phage ELISA: Competitive phage ELISA's were performed as described by DeLano and Cunningham (DeLano and Cunningham 2004). Briefly, the concentration of phage needed to produce a 60% saturation signal was determined by running a phage ELISA of serially diluted phage stocks. This fixed amount of phage was then added to serially diluted RNase A and incubated for one hour at room temperature. The well contents of that plate were then transferred to a washed and blocked RNase A coated Maxisorp microtiter plate and incubated 15 minutes at room temperature. The plates were then treated as described above to determine the […] absorbance. The IC50 values were then determined using Origin Labs using the following relationship: […]

[4] = molecular target: T1, bovine pancreatic RNase A; test: competitive phage ELISA with 1 mM metals: VHH phage, serially diluted soluble RNase A (the varied competitor), RNase A-coated wells [panel A]
Method: as §3

[5] = molecular target: T1, bovine pancreatic RNase A; test: ITC, 25 C, no metal
Method: ITC experiments were performed using a MicroCal VP-ITC (MicroCal, LLC, Northampton, Mass.). All experiments were performed at 25° C. Proteins were dialyzed against the desired experimental buffer, which included PBS (20 mM NaPhosphate, 150 mM NaCl pH 7.4), TBS (20 mM Tris-HCl, 150 mM NaCl pH 7.4) and TBS-E (20 mM Tris, 150 mM NaCl, 1 mM EDTA, pH 7.4). For direct titration of NiCl₂ into the VHH-metal variant, concentrations were 2 mM and 200 μM for NiCl2 and VHH, respectively. Based on the observed binding constant, this corresponds to a “c-value” of 6.7, which is within the commonly acceptable range for the accurate determination of binding thermodynamics. For competitive titrations, nickel was included in TBS without EDTA at concentrations ranging from 0-10 mM. Competitive VHH/RNase A titration experiments with a “c” value greater than 10 included protein concentrations ranging from 30 μM to 205 μM. Conditions included a 10-fold higher concentration of titrant (VHH). […] These experiments included using a 100-fold higher concentration of titrant (RNase A) relative to VHH. RNase A concentrations were between 150 μM and 800 μM. […] The binding parameters (K, ΔH°, ΔS°, and n) were determined using the single site binding model using the ITC add-in in Origin version 7 (MicroCal LLC). […]

[6] = molecular target: T1, bovine pancreatic RNase A; test: ITC, 25 C, pH 7.4; no nickel
Method: as §1, §2

[7] = molecular target: T1, bovine pancreatic RNase A; test: ITC, 25 C, pH 7.4; no nickel; ITC at 25° C., no nickel
Method: as §1
(§4) ITC experiments were performed using a MicroCal VP-ITC (MicroCal, LLC, Northampton, Mass.). All experiments were performed at 25° C. Proteins were dialyzed against the desired experimental buffer, which included PBS (20 mM NaPhosphate, 150 mM NaCl pH 7.4), TBS (20 mM Tris-HCl, 150 mM NaCl pH 7.4) and TBS-E (20 mM Tris, 150 mM NaCl, 1 mM EDTA, pH 7.4). For direct titration of NiCl₂ into the VHHmetal variant, concentrations were 2 mM and 200 μM for NiCl₂ and VHH, respectively. Based on the observed binding constant, this corresponds to a “cvalue” of 6.7, which is within the commonly acceptable range for the accurate determination of binding thermodynamics (Tellinghuisen, 2008; Wiseman et al. 1989). For competitive titrations, nickel was included in TBS without EDTA at concentrations ranging from 0-10 mM. […] Extinction coefficients were determined using values determined by the methods described by Pace, et. al. (1995). […] The binding parameters (K, ΔH°, ΔS°, and n) were determined using the single site binding model using the ITC add-in in Origin version 7 (MicroCal LLC).

[8] = molecular target: T1, bovine pancreatic RNase A; test: ITC, 25 C; RNase A binding with 1 µM nickel (competitive)
Method: as §1, §2

[9] = molecular target: T1, bovine pancreatic RNase A; test: ITC, 25 C; RNase A binding with 10 mM nickel (competitive)
Method: as §1, §2

[10] = molecular target: T1, bovine pancreatic RNase A; test: ITC, 25 C; RNase A binding with 10 µM nickel (competitive)
Method: as §1, §2

[11] = molecular target: T1, bovine pancreatic RNase A; test: ITC, 25 C; RNase A binding with 100 µM nickel (competitive)
Method: as §1, §2

[12] = molecular target: T1, bovine pancreatic RNase A; test: ITC, 25 C, no metal; reference is the wild-type anti-RNase A VHH
Method: as §1, §4

[13] = molecular target: T1, bovine pancreatic RNase A; test: competitive phage ELISA, soluble RNase A against coated RNase A, with and without 1 mM Zn2+/Co2+/Ni2+

B1: wild-type anti-RNase A VHH (cAb-RN05) (VHH)
VHH: QVQLVESGGGLVQAGGSLRLSCAASGYAYTYIYMGWFRQAPGKEREGVAAMDSGGGGTLYADSVKGRFTISRDKGKNTVYLQMDSLKPEDTATYYCAAGGYELRDRTYGQWGQGTQVTVSS
notes: Camelid single-domain antibody; also called VHH-wt; wt-VHH
- -TΔS° [1]: 1.9 kcal/mol
- Kd [1]: 19 nM
- N [1]: 1.01
- ΔG° [1]: -10.5 kcal/mol
- ΔH° [1]: -12.4 kcal/mol
- -TΔS° [2]: 0.9 kcal/mol
- Kd [2]: 16 nM
- N [2]: 0.994
- ΔG° [2]: -10.6 kcal/mol
- ΔH° [2]: -10.7 kcal/mol
- IC50 (read off the curve) [3]: ~0.7 nM
- IC50 (read off the curve) [4]: ~1 nM

B2: VHH-metal (metal sensitive anti-RNase A VHH) (VHH)
VHH: B1 VHH with A28P, Y29H, T30P, I32L, Y33H, E102Q, Q110H
notes: also called Metal-VHH
- Kd [5]: 155 nM
- -TΔS° [6]: 9 kcal/mol
- N [6]: 0.96
- ΔG° [6]: -9.3 kcal/mol
- ΔH° [6]: -17.8 kcal/mol
- Kd [7]: 157 nM
- -TΔS° [2]: 0.09 kcal/mol
- Kd [2]: 5640 nM
- N [2]: 1
- ΔG° [2]: -7.13 kcal/mol
- ΔH° [2]: -7.2 kcal/mol
- -TΔS° [8]: 8 kcal/mol
- Kd [8]: 160 nM
- N [8]: 0.959
- ΔG° [8]: -9.27 kcal/mol
- ΔH° [8]: -17.2 kcal/mol
- -TΔS° [9]: 1.3 kcal/mol
- Kd [9]: 34000 nM
- N [9]: 1
- ΔG° [9]: -6.07 kcal/mol
- ΔH° [9]: -7.3 kcal/mol
- -TΔS° [10]: 3.6 kcal/mol
- Kd [10]: 219 nM
- N [10]: 0.98
- ΔG° [10]: -9.1 kcal/mol
- ΔH° [10]: -12.7 kcal/mol
- -TΔS° [11]: -1 kcal/mol
- Kd [11]: 900 nM
- N [11]: 0.98
- ΔG° [11]: -8.27 kcal/mol
- ΔH° [11]: -7 kcal/mol
- fold decrease in binding affinity against the wild-type VHH [12]: ~8 fold
- ΔΔG° against the wild-type VHH [12]: 1.2 kcal/mol
- fold change in IC50 with and without 1 mM metals [13]: 1000 fold
- IC50 (read off the curve) [3]: ~0.6 nM
